B1: OC1 probe (OfCCD4 promoter, CAACA element) (dsDNA)
DNA 1: AAAGAAAAAAGGACAACAACAGTGGATAATTTGA
DNA 2: TCAAATTATCCACTGTTGTTGTCCTTTTTTCTTT
B2: OC1 unlabeled competitor (dsDNA)
DNA 1: AAAGAAAAAAGGACAACAACAGTGGATAATTTGA
DNA 2: TCAAATTATCCACTGTTGTTGTCCTTTTTTCTTT

Columns and labels:
[1] = molecular target: T1, OfERF61 (Osmanthus fragrans, UniProt A0A5P8PES4 1-303); assay: EMSA; 0, 2, 4, 8 ug ERF61; complex increases with protein; LightShift Chemiluminescent EMSA Kit (Thermo Fisher), manufacturer's instructions; buffer, salt, pH and temperature not stated; conditions: protein: recombinant; tags: pET-30a vector tags (not given); label: 3' biotin (sense strand); blunt
[2] = molecular target: T1, OfERF61; assay: competition; labeled OC1 probe; signal reduced at 20-fold, not detected at 200-fold excess; LightShift Chemiluminescent EMSA Kit (Thermo Fisher), manufacturer's instructions; buffer, salt, pH and temperature not stated; conditions: protein: recombinant; tags: pET-30a vector tags (not given); label: none; blunt

T1 sequence (A0A5P8PES4 entry or part of it): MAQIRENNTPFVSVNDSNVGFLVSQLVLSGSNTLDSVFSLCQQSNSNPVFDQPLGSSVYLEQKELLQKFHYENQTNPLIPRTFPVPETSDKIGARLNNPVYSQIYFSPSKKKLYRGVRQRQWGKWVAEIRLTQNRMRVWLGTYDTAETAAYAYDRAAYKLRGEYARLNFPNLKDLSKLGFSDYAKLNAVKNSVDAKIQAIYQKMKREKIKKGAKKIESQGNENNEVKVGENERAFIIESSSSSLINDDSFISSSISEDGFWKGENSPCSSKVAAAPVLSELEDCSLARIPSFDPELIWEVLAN

| Binder | binding result [1] | binding result [2] |
| --- | --- | --- |
| B1 | binds |  |
| B2 |  | binds |
